{"source": "patent US20060263802A1", "about": "(CRUCELL HOLLAND B V, published 2006)", "experiment_in_all_cases": "PEPSCAN ELISA, looped 15-mer, 10 ug/ml", "key": {"[1]": {"target": "looped peptide … (rabies virus strain ERA)"}, "[2]": {"target": "looped peptide … (rabies virus strain ERA)", "remark": "listed apart in the source"}, "looped peptide […] [3]": {"target": "looped peptide […] (rabies virus strain ERA)"}, "[4]": {"target": "looped peptide … (rabies virus strain ERA)", "remark": "listed apart in the source"}, "looped peptide […] [5]": {"target": "looped peptide […] (rabies virus strain ERA)", "remark": "listed apart in the source"}, "[6]": {"target": "looped peptide … (rabies virus strain ERA)", "remark": "listed apart in the source"}, "[7]": {"target": "looped peptide … (rabies virus strain ERA)", "remark": "listed apart in the source"}, "looped peptide […] [8]": {"target": "looped peptide […] (rabies virus strain ERA)", "remark": "listed apart in the source"}, "looped peptide […] [9]": {"target": "looped peptide […] (rabies virus strain ERA)", "remark": "listed apart in the source"}, "looped peptide […] [10]": {"target": "looped peptide […] (rabies virus strain ERA)", "remark": "listed apart in the source"}, "[11]": {"target": "looped peptide … (rabies virus strain ERA)", "remark": "listed apart in the source"}, "[12]": {"target": "looped peptide … (rabies virus strain ERA)", "remark": "listed apart in the source"}, "looped peptide […] [13]": {"target": "looped peptide […] (rabies virus strain ERA)", "remark": "listed apart in the source"}, "[14]": {"target": "looped peptide … (rabies virus strain ERA)", "remark": "listed apart in the source"}, "[15]": {"target": "looped peptide … (rabies virus strain ERA)", "remark": "listed apart in the source"}}}
{"binder": "human monoclonal antibody CRJB (antibody, V domains shown) VH: QITLKETGPTLVKPTQTLTLTCTFSGFSLSTSGVGVGWIRQPPGKALEWVTLIYWDDDKRYSPSLENRVTIRKDTSKNQVALTMTNMDPLDTGTYYCAHRQHISSFPWFDSWGQGTLVTVSS VL: SYVLTQPPSVSVAPGKTARINCGGNNIEYRSVHWYQQKSGQAPVAVIYDNSDRPSGIPERFSGSKSGNTATLTISRVEAGDEADYYCQVWDISSDVVFGGGTKLTVLG", "values": [{"measurement": "OD value", "setting": "[1]", "value": 60}, {"measurement": "OD value", "setting": "[2]", "value": 74}, {"measurement": "OD value", "setting": "looped peptide […] [3]", "value": 132}, {"measurement": "OD value", "setting": "[4]", "value": 79}, {"measurement": "OD value", "setting": "looped peptide […] [5]", "value": 156}, {"measurement": "OD value", "setting": "[6]", "value": 68}, {"measurement": "OD value", "setting": "[7]", "value": 63}, {"measurement": "OD value", "setting": "looped peptide […] [8]", "value": 186}, {"measurement": "OD value", "setting": "looped peptide […] [9]", "value": 87}, {"measurement": "OD value", "setting": "looped peptide […] [10]", "value": 71}, {"measurement": "OD value", "setting": "[11]", "value": 76}, {"measurement": "OD value", "setting": "[12]", "value": 72}, {"measurement": "OD value", "setting": "looped peptide […] [13]", "value": 206}, {"measurement": "OD value", "setting": "[14]", "value": 79}, {"measurement": "OD value", "setting": "[15]", "value": 92}]}
